According to patent US20260098059A1 (ENDOMET BIOSCIENCES, published 2026):
“And” between values parts separate entries of the source, which are not always exact repeats. Equal values may be shown once. Bridges are numbered along the chain shown (N, C = ends). [ ]: non-standard residue; d: D form. The star is where a group is joined. N3 = N-terminal azide group, clicked with Pra; NMeW = CN[C@@H](Cc1c[nH]c2ccccc12)C(=O)O; Stearoyl = CCCCCCCCCCCCCCCCCC(=O)*; Palmitoyl = CCCCCCCCCCCCCCCC(=O)*; αMeV = CC(C)[C@](C)(N)C(=O)O; αMeS = C[C@](N)(CO)C(=O)O; Pra = C#CC[C@H](N)C(=O)O; GABA = NCCCC(=O)O; βAla = NCCC(=O)O

B1: SEQ ID NO: 399 (peptide)
peptide: Palmitoyl-[βAla]W[NMeW]E[αMeS]ILDEH[αMeV]QRVW-OH
SMILES: CCCCCCCCCCCCCCCC(=O)NCCC(=O)N[C@@H](Cc1c[nH]c2ccccc12)C(=O)N(C)[C@@H](Cc1c[nH]c2ccccc12)C(=O)N[C@@H](CCC(=O)O)C(=O)N[C@@](C)(CO)C(=O)N[C@H](C(=O)N[C@@H](CC(C)C)C(=O)N[C@@H](CC(=O)O)C(=O)N[C@@H](CCC(=O)O)C(=O)N[C@@H](Cc1c[nH]cn1)C(=O)N[C@](C)(C(=O)N[C@@H](CCC(N)=O)C(=O)N[C@@H](CCCNC(=N)N)C(=O)N[C@H](C(=O)N[C@@H](Cc1c[nH]c2ccccc12)C(=O)O)C(C)C)C(C)C)[C@@H](C)CC
B2: SEQ ID NO: 208 (peptide)
peptide: KWFEISFWG
HELM: PEPTIDE1{K.W.F.E.I.S.F.W.G}$PEPTIDE1,PEPTIDE1,1:R3-4:R3$$$V2.0
SMILES: CC[C@H](C)[C@H](NC(=O)[C@@H]1CCC(=O)NCCCC[C@H](N)C(=O)N[C@@H](Cc2c[nH]c3ccccc23)C(=O)N[C@@H](Cc2ccccc2)C(=O)N1)C(=O)N[C@@H](CO)C(=O)N[C@@H](Cc1ccccc1)C(=O)N[C@@H](Cc1c[nH]c2ccccc12)C(=O)NCC(=O)O
B3: SEQ ID NO: 31 (peptide)
peptide: KMSRMWYLISFW
HELM: PEPTIDE1{K.M.S.R.M.W.Y.L.I.S.F.W}$PEPTIDE1,PEPTIDE1,1:R3-12:R2$$$V2.0
SMILES: CC[C@H](C)[C@@H]1NC(=O)[C@H](CC(C)C)NC(=O)[C@H](Cc2ccc(O)cc2)NC(=O)[C@H](Cc2c[nH]c3ccccc23)NC(=O)[C@H](CCSC)NC(=O)[C@H](CCCNC(=N)N)NC(=O)[C@H](CO)NC(=O)[C@H](CCSC)NC(=O)[C@@H](N)CCCCNC(=O)[C@H](Cc2c[nH]c3ccccc23)NC(=O)[C@H](Cc2ccccc2)NC(=O)[C@H](CO)NC1=O
B4: SEQ ID NO: 180 (peptide)
peptide: KMWFLICEWG
HELM: PEPTIDE1{K.M.W.F.L.I.C.E.W.G}$PEPTIDE1,PEPTIDE1,1:R3-8:R3$$$V2.0
SMILES: CC[C@H](C)[C@@H]1NC(=O)[C@H](CC(C)C)NC(=O)[C@H](Cc2ccccc2)NC(=O)[C@H](Cc2c[nH]c3ccccc23)NC(=O)[C@H](CCSC)NC(=O)[C@@H](N)CCCCNC(=O)CC[C@@H](C(=O)N[C@@H](Cc2c[nH]c3ccccc23)C(=O)NCC(=O)O)NC(=O)[C@H](CS)NC1=O
B5: SEQ ID NO: 181 (peptide)
peptide: KWFLICEWG
HELM: PEPTIDE1{K.W.F.L.I.C.E.W.G}$PEPTIDE1,PEPTIDE1,1:R3-7:R3$$$V2.0
SMILES: CC[C@H](C)[C@@H]1NC(=O)[C@H](CC(C)C)NC(=O)[C@H](Cc2ccccc2)NC(=O)[C@H](Cc2c[nH]c3ccccc23)NC(=O)[C@@H](N)CCCCNC(=O)CC[C@@H](C(=O)N[C@@H](Cc2c[nH]c3ccccc23)C(=O)NCC(=O)O)NC(=O)[C@H](CS)NC1=O
B6: SEQ ID NO: 394 (peptide)
peptide: Stearoyl-[βAla]W[NMeW]E[αMeS]ILDEH[αMeV]QRVW-OH
SMILES: CCCCCCCCCCCCCCCCCC(=O)NCCC(=O)N[C@@H](Cc1c[nH]c2ccccc12)C(=O)N(C)[C@@H](Cc1c[nH]c2ccccc12)C(=O)N[C@@H](CCC(=O)O)C(=O)N[C@@](C)(CO)C(=O)N[C@H](C(=O)N[C@@H](CC(C)C)C(=O)N[C@@H](CC(=O)O)C(=O)N[C@@H](CCC(=O)O)C(=O)N[C@@H](Cc1c[nH]cn1)C(=O)N[C@](C)(C(=O)N[C@@H](CCC(N)=O)C(=O)N[C@@H](CCCNC(=N)N)C(=O)N[C@H](C(=O)N[C@@H](Cc1c[nH]c2ccccc12)C(=O)O)C(C)C)C(C)C)[C@@H](C)CC
B7: SEQ ID NO: 173 (peptide)
peptide: KWFLICEWG
HELM: PEPTIDE1{K.W.F.L.I.C.E.W.G}$PEPTIDE1,PEPTIDE1,1:R3-7:R3$$$V2.0
SMILES: CC[C@H](C)[C@@H]1NC(=O)[C@H](CC(C)C)NC(=O)[C@H](Cc2ccccc2)NC(=O)[C@H](Cc2c[nH]c3ccccc23)NC(=O)[C@@H](N)CCCCNC(=O)CC[C@@H](C(=O)N[C@@H](Cc2c[nH]c3ccccc23)C(=O)NCC(=O)O)NC(=O)[C@H](CS)NC1=O
B8: SEQ ID NO: 205 (peptide)
peptide: KWXLISAWD
HELM: PEPTIDE1{K.W.[CC(C)(C)[C@H](N[*:1])C(=O)[*:2]].L.I.S.A.W.D}$PEPTIDE1,PEPTIDE1,1:R3-9:R3$$$V2.0
SMILES: CC[C@H](C)[C@@H]1NC(=O)[C@H](CC(C)C)NC(=O)[C@H](C(C)(C)C)NC(=O)[C@H](Cc2c[nH]c3ccccc23)NC(=O)[C@@H](N)CCCCNC(=O)C[C@@H](C(=O)O)NC(=O)[C@H](Cc2c[nH]c3ccccc23)NC(=O)[C@H](C)NC(=O)[C@H](CO)NC1=O
B9: SEQ ID NO: 178 (peptide)
peptide: DWFLICAWKG
HELM: PEPTIDE1{D.W.F.L.I.C.A.W.K.G}$PEPTIDE1,PEPTIDE1,1:R3-9:R3$$$V2.0
SMILES: CC[C@H](C)[C@@H]1NC(=O)[C@H](CC(C)C)NC(=O)[C@H](Cc2ccccc2)NC(=O)[C@H](Cc2c[nH]c3ccccc23)NC(=O)[C@@H](N)CC(=O)NCCCC[C@@H](C(=O)NCC(=O)O)NC(=O)[C@H](Cc2c[nH]c3ccccc23)NC(=O)[C@H](C)NC(=O)[C@H](CS)NC1=O
B10: SEQ ID NO: 391 (peptide)
peptide: Stearoyl-[βAla]W[NMeW]E[αMeS]ILDEH[αMeV]QRVWG-OH
SMILES: CCCCCCCCCCCCCCCCCC(=O)NCCC(=O)N[C@@H](Cc1c[nH]c2ccccc12)C(=O)N(C)[C@@H](Cc1c[nH]c2ccccc12)C(=O)N[C@@H](CCC(=O)O)C(=O)N[C@@](C)(CO)C(=O)N[C@H](C(=O)N[C@@H](CC(C)C)C(=O)N[C@@H](CC(=O)O)C(=O)N[C@@H](CCC(=O)O)C(=O)N[C@@H](Cc1c[nH]cn1)C(=O)N[C@](C)(C(=O)N[C@@H](CCC(N)=O)C(=O)N[C@@H](CCCNC(=N)N)C(=O)N[C@H](C(=O)N[C@@H](Cc1c[nH]c2ccccc12)C(=O)NCC(=O)O)C(C)C)C(C)C)[C@@H](C)CC
B11: SEQ ID NO: 177 (peptide)
peptide: DMWFLICFWKG
HELM: PEPTIDE1{D.M.W.F.L.I.C.F.W.K.G}$PEPTIDE1,PEPTIDE1,1:R3-10:R3$$$V2.0
SMILES: CC[C@H](C)[C@@H]1NC(=O)[C@H](CC(C)C)NC(=O)[C@H](Cc2ccccc2)NC(=O)[C@H](Cc2c[nH]c3ccccc23)NC(=O)[C@H](CCSC)NC(=O)[C@@H](N)CC(=O)NCCCC[C@@H](C(=O)NCC(=O)O)NC(=O)[C@H](Cc2c[nH]c3ccccc23)NC(=O)[C@H](Cc2ccccc2)NC(=O)[C@H](CS)NC1=O

Biological target: T1, β-catenin (UniProt P35222 134-665, limits assumed, biotinylated in the SPR and plate assays)
T1 sequence (looked up): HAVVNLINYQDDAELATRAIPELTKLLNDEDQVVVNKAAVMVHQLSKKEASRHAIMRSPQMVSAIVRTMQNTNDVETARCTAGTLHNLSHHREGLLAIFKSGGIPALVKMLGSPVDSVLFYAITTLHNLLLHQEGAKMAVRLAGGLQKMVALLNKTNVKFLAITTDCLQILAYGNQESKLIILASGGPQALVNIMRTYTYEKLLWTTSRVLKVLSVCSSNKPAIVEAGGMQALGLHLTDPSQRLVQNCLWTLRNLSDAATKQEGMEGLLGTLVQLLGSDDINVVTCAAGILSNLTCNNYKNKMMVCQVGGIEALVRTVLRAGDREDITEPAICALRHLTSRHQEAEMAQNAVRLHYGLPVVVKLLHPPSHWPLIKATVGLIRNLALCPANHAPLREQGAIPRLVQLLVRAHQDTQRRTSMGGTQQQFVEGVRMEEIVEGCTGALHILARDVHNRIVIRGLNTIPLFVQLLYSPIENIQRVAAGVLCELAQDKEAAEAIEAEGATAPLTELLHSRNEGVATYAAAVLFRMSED
Experiment: cell-based or functional assay

Row | Binder | Wnt Reporter EC50 | Proliferation IC50, Wnt dependent cells | Proliferation IC50, Endo cells
1 | B1 | > 7.5 µM and ≤ 15 µM | – | –
2 | B2 | > 7.5 µM and ≤ 15 µM | – | –
3 | B3 | > 30 µM | – | –
4 | B4 | ≤ 7.5 µM | – | –
5 | Stearoyl-W[NMeW]E[αMeS]ILDEH[αMeV]QRVWG-OH [SEQ ID NO: 390] | > 7.5 µM and ≤ 15 µM | 4.7 µM | –
6 | {Stearoyl-GABA}-W[NMeW]E[αMeS]ILDEH[αMeV]QRVWG-OH [SEQ ID NO: 392] | ≤ 7.5 µM | – | –
7 | B5 | > 30 µM | – | –
8 | N3-WESILDEHVQRVW[Pra]-NH2 (triazole N-14) [SEQ ID NO: 33] | > 30 µM | – | –
9 | Palmitoyl-W[NMeW]E[αMeS]ILDEH[αMeV]QRVW-OH [SEQ ID NO: 397] | > 7.5 µM and ≤ 15 µM | – | –
10 | {Stearoyl-GABA}-W[NMeW]E[αMeS]ILDEH[αMeV]QRVW-OH [SEQ ID NO: 395] | > 7.5 µM and ≤ 15 µM | 6.8 µM | –
11 | B6 | > 7.5 µM and ≤ 15 µM | – | –
12 | B7 | > 30 µM | – | –
13 | KWFLICFWEG (cyclo-H2N-K(G*)WFLICFWE*G-COOH) [SEQ ID NO: 174] | > 7.5 µM and ≤ 15 µM | – | –
14 | H-MSRMWFLISFWEG-OH [SEQ ID NO: 57] | ≤ 7.5 µM | – | –
15 | H-MSRMWFLISFWRG-OH [SEQ ID NO: 58] | > 22.5 µM and ≤ 30 µM | – | –
16 | B8 | > 30 µM | – | –
17 | B9 | ≤ 7.5 µM | – | –
18 | {Palmitoyl-GABA}-W[NMeW]E[αMeS]ILDEH[αMeV]QRVW-OH [SEQ ID NO: 400] | > 7.5 µM and ≤ 15 µM | – | –
19 | B10 | ≤ 7.5 µM | 4.8 µM | –
20 | B11 | > 7.5 µM and ≤ 15 µM | – | –
21 | Palmitoyl-W[NMeW]E[αMeS]ILDEH[αMeV]QRVWG-OH [SEQ ID NO: 396] | > 7.5 µM and ≤ 15 µM | 2.9 µM | 15 µM
22 | Palmitoyl-GW[NMeW]E[αMeS]ILDEH[αMeV]QRVW-OH [SEQ ID NO: 398] | > 7.5 µM and ≤ 15 µM | – | –
